Experimental data taken from patent publication US20220332804A1 (CSL INNOVATION, published 2022).
Where a chain is given by its changes, count along the chain named.

Tests used:
Assay in all cases: SPR, mAb captured, C2 mutant analyte;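 also: Anti-C2 mAbs captured on goat anti-human IgG Biacore CM5 chips, alanine or serine C2 surface mutants flowed over at 37 °C, double-referenced sensorgrams fitted to a 1:1 binding model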
human C2 K244A = target: T1, human C2 K244A (human, UniProt P06681 21-752)
T1 sequence: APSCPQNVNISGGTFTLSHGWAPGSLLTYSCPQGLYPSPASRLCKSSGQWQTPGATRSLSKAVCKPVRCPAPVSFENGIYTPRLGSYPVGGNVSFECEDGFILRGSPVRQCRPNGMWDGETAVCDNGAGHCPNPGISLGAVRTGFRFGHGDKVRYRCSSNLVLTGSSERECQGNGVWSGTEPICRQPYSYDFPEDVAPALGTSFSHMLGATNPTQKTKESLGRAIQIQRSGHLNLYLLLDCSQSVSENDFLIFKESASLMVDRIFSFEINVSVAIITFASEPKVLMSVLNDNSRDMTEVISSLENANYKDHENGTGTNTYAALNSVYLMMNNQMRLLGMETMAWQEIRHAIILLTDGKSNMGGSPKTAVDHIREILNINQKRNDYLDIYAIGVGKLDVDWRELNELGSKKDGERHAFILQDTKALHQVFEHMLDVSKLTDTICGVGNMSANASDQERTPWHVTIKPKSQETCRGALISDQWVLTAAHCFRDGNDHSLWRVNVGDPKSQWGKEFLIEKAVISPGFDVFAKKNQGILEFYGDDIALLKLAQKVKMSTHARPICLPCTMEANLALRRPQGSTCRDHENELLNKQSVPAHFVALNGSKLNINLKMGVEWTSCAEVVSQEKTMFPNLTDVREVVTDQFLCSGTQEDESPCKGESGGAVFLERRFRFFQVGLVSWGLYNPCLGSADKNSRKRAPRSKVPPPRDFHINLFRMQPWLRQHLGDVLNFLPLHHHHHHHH

human C2 N327A = target: T2, human C2 N327A (human, UniProt P06681 21-752)
T2 sequence: T1 sequence with A224K, N307A

human C2 N325A = target: T3, human C2 N325A (human, UniProt P06681 21-752)
T3 sequence: T1 sequence with A224K, N305A

human C2 V465A = target: T4, human C2 V465A (human, UniProt P06681 21-752)
T4 sequence: T1 sequence with A224K, V445A

B1: RF16-214 (antibody, V domains shown)
VH: EVQLLESGGGLVQPGGSLRLSCAASGFTFSWYQMMWVRQAPGKGLEWVSRIYPSGGGTAYADSVKGRFTISRDNSKNTLYLQMNSLRAEDTAVYYCARDAGYGDNWGQGTLVTVSS
VL: QSALTQPPSVSVSPGQTASITCSGDKLGEKYASWYQQKAGQSPVMVIYQDRKRPSGIPERFSGSNSGNTATLTISGTQAMDEADYYCQAWDTRAVVFGGGTKLTVLG
Q: For B1, which Kd (human C2 K244A) is on record?
A: The Kd was 97.1 nM.

Q: What about the Kd (human C2 N327A) of the same binder?
A: Its Kd is 205 nM.

Q: What about the Kd (human C2 N325A) of the same binder?
A: Its Kd is 328 nM.

Q: What about the Kd (human C2 V465A) of the same binder?
A: Its Kd is 72.7 nM.
